Km, kcat and kcat/Km data for 3 proteins are collected here from patent US5770410A, “Chiral synthesis with modified enzymes” (Genzyme Corporation, priority 1992, dated 1998).

Common to all, as to assay: Steady-state kinetics, NADH-dependent reduction of 2-oxo acids (A340)
Substrate in data set [1]: O=C(O)C(=O)CCc1ccccc1
The format is biochemical, Bacillus stearothermophilus. The settings on record: other: +FBP (5 mM), 25° C., pH 6. On the procedure: (§1) Overnight cultures (11) were centrifuged and the packed cells were resuspended in 50 mM triethanolamine, pH 6.0. The cells were sonicated and the debris was removed by centrifugation. The protein in the supernatant was precipitated by the addition of 65% ammonium sulphate. The precipitate was spun down and resuspended in 50 mM triethanolamine, pH 6.0 and dialysed against the same buffer. After dialysis, NADH and FBP were added to the protein to final concentrations of 5 mM and 10 mM before loading onto an oxamate Sepharose column which had been pre-equilibrated with 50 mM triethanoloamine, pH 6.0, 3 mM NADH and 5 mM FBP. After washing off unbound protein with column buffer mutant LDH was eluted with 50 mM triethanolamine, pH 9.0, 0.3 M NaCl. The elutant was precipitated with 65% ammonium sulphate and then resuspended in and dialysed against 50 mM triethanolamine, pH 7.5. The protein was then loaded onto a Q-Sepharose Fast Flow column and eluted with a salt gradient. LDH eluted at a concentration of 0.25M NaCl. For the double glycine mutant enzyme, the first chromatography procedure with oxamate Sepharose was replaced by chromatography on Blue Sepharose -F3GA, otherwise the procedure was essentially the same. All proteins were judged to be greater than 98% pure from the intensity of Coomassie blue staining on an SDS Phast gel (Pharmacia). The yield of protein was usually 0.2 g/l of original broth.
(§2) Steady-state measurements were made by following the reduction in absorbance at 340 nm in the NADH/NAD^+ conversion. All assays were at 25° C. in the buffer Bis-Tris, pH 6, (20 mM), containing KC1 (50 mM) and when used fructose-1,6-bisphosphate at 5 mM. Protein concentration was determined from the absorbance at 280 nm using the value of 0.91 for 1 mg/ml protein in 1 cm path and an Mr of 33,000.
(§3) The specific substrates used in the evaluations are shown in the left column of Table 4. In Table 4, "235/6GG" denotes the mutant enzyme formed by substituting GlyGly for AlaAla at the 235-236 positions of the enzyme (Wilks et al., Biochemistry 1990, 29, 8587-8591), and "WTrs" denotes a mutant derived from the wild-type strain as shown in FIG. 1 of Wilks et al., Biochemistry 1992, 31, 7802-7806.

Substrate in data set [2]: CC(=O)C(=O)O
The format is biochemical, Bacillus stearothermophilus. Conditions: other: -FBP, 25° C., pH 6. On the procedure:
as §1, §2, §3

Substrate in data set [3]: O=C(O)C(=O)Cc1ccccc1
The format is biochemical, Bacillus stearothermophilus. Conditions: other: +FBP (5 mM), 25° C., pH 6. On the procedure:
as §1, §2, §3

Substrate in data set [4]: O=C(O)C(=O)CCc1ccccc1
The format is biochemical. The settings on record: 25° C., pH 6.
Excerpt: (§4) Mutants were identified by making mini-preps and restricting with SacII and XbaI. Mutant mini-preps were restricted with EcoRI and XhoI and the small fragment was subcloned into PKK223-3 containing Ala235Gly, Ala236Gly mutant LDH from which the small EcoRI/XhoI fragment had been removed (Wilks et al. Biochemistry, 1990, 29, 8587). The resulting plasmid (pLDHrs) was transformed into competent E. coli TG2 cells.
as §1, §2, §3

Substrate in data set [5]: CC(C)CC(=O)C(=O)O
The format is biochemical. Conditions: other: -FBP, 25° C., pH 6.
Excerpt: as §4, §1, §2, §3

Substrate in data set [6]: CC(=O)C(=O)O
The format is biochemical. Conditions: other: -FBP, 25° C., pH 6.
Excerpt: as §4, §1, §2, §3

Substrate in data set [7]: O=C(O)C(=O)Cc1ccccc1
It is filed as biochemical. The settings on record: 25° C., pH 6.
Excerpt: as §4, §1, §2, §3

Substrate in data set [8]: CCCCC(=O)C(=O)O
It is filed as biochemical. Conditions: other: -FBP, 25° C., pH 6.
Excerpt: as §4, §1, §2, §3

As a reminder, the Km is the concentration of substrate that gives half-maximal velocity. What is called kcat is the maximal rate divided by the concentration of active sites. Usually kcat/Km stands for the second-order rate constant that governs catalysis at low substrate concentration.

B1: Bacillus stearothermophilus lactate dehydrogenase, wild type, SEQ ID NO: 3 (Geobacillus stearothermophilus) (protein)
chain: MKNNGGARVVVIGAGFVGASYVFALMNQGIADEIVLIDANESKAIGDAMDFNHGKVFAPKPVDIWHGDYDDCRDADLVVICAGANQKPGETRLDLVDKNIAIFRSIVESVMASGFQGLFLVATNPVDILTYATWKFSGLPHERVIGSGTILDTARFRFLLGEYFSVAPQNVHAYIIGEHGDTELPVWSQAYIGVMPIRKLVESKGEEAQKDLERIFVNVRDAAYQIIEKKGATYYGIAMGLARVTRAILHNENAILTVSAYLDGLYGERDVYIGVPAVINRNGIREVIEIELNDDEKNRFHHSAATLKSVLARAFTR
notes: made in house; host or cells: E. coli
Regarding B1, in data set [1], the Km is 0.6 mM, the kcat was determined as 6 s⁻¹ and the kcat/Km came out at 10000 M⁻¹ s⁻¹. In data set [2], the Km turned out to be 2 mM, the kcat came out at 250 s⁻¹ and the kcat/Km came to 50000 M⁻¹ s⁻¹. In data set [3], the Km was 1.8 mM, the kcat stood at 32.7 s⁻¹ and the kcat/Km was determined as 18000 M⁻¹ s⁻¹.

B2: Bacillus stearothermophilus lactate dehydrogenase mutant WTrs (restriction-site construct pLDHrs, Cys97Thr, Ala235Gly, Ala236Gly; loop SEQ ID No 7) … (protein)
chain: MKNNGGARVVVIGAGFVGASYVFALMNQGIADEIVLIDANESKAIGDAMDFNHGKVFAPKPVDIWHGDYDDCRDADLVVITAGANQKPGETRLDLVDKNIAIFRSIVESVMASGFQGLFLVATNPVDILTYATWKFSGLPHERVIGSGTILDTARFRFLLGEYFSVAPQNVHAYIIGEHGDTELPVWSQAYIGVMPIRKLVESKGEEAQKDLERIFVNVRDGGYQIIEKKGATYYGIAMGLARVTRAILHNENAILTVSAYLDGLYGERDVYIGVPAVINRNGIREVIEIELNDDEKNRFHHSAATLKSVLARAFTR
notes: made in house; host or cells: E. coli TG2
B2: the Km is 4 mM in data set [4] (other: +FBP (5 mM)); 12 mM in data set [4] (other: -FBP); 28 mM in data set [5]; 100 mM in data set [6]; 6 mM in data set [7] (other: +FBP (5 mM)); 21 mM in data set [7] (other: -FBP). Also, the Km in data set [8] turned out to be 30 mM. In addition, the kcat was 6 s⁻¹ in data set [4] (other: +FBP (5 mM)) and 58 s⁻¹ in data set [7] (other: +FBP (5 mM)). Also, the kcat/Km in data set [4] (other: +FBP (5 mM)) is 1500 M⁻¹ s⁻¹; in data set [7] (other: +FBP (5 mM)) it was 9600 M⁻¹ s⁻¹.

B3: Bacillus stearothermophilus lactate dehydrogenase mutant 235/6GG (Ala235Gly, Ala236Gly) (Geobacillus stearothermophilus; A222G/A223G) (protein)
chain: MKNNGGARVVVIGAGFVGASYVFALMNQGIADEIVLIDANESKAIGDAMDFNHGKVFAPKPVDIWHGDYDDCRDADLVVICAGANQKPGETRLDLVDKNIAIFRSIVESVMASGFQGLFLVATNPVDILTYATWKFSGLPHERVIGSGTILDTARFRFLLGEYFSVAPQNVHAYIIGEHGDTELPVWSQAYIGVMPIRKLVESKGEEAQKDLERIFVNVRDGGYQIIEKKGATYYGIAMGLARVTRAILHNENAILTVSAYLDGLYGERDVYIGVPAVINRNGIREVIEIELNDDEKNRFHHSAATLKSVLARAFTR
notes: as for B1
As to B3, in data set [1], the Km was determined as 13 mM, the kcat worked out at 7 s⁻¹ and the catalytic efficiency (kcat/Km) worked out at 538 M⁻¹ s⁻¹. In addition, in data set [3], the Michaelis-Menten constant (Km) was 4.5 mM, the kcat was determined as 53.4 s⁻¹ and the kcat/Km is 12000 M⁻¹ s⁻¹.
